Legend:
Assay in all cases: BLI
[1] = biological target: T1, full-length β-catenin, untagged, wild type (human, UniProt P35222 1-781)
T1 sequence (looked up): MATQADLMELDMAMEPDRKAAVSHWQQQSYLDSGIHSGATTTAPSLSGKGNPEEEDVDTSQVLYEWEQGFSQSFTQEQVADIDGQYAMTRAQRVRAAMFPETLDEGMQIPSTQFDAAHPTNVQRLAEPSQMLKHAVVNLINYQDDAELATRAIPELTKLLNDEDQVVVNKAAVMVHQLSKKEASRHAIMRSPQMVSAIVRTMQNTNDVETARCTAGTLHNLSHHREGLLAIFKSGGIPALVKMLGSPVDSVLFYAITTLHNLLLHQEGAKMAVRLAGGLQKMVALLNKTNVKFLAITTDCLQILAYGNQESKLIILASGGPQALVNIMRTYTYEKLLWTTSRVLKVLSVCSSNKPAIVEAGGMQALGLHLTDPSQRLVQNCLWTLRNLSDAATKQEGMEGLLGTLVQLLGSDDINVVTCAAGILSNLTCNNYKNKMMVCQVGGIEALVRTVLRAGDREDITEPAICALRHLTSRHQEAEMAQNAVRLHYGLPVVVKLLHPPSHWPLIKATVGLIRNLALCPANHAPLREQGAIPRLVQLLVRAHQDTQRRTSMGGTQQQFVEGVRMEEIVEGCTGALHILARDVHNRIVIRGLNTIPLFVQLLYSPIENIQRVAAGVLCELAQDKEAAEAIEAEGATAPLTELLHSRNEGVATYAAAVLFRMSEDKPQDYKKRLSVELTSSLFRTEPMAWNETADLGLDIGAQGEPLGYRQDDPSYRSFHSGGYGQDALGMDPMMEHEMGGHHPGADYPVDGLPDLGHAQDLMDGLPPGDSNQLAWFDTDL

[2] = biological target: T2, β-catenin C619Y/E620K (purified, full length, untagged) (human, UniProt P35222 1-781, C619Y | E620K)
T2 sequence (looked up): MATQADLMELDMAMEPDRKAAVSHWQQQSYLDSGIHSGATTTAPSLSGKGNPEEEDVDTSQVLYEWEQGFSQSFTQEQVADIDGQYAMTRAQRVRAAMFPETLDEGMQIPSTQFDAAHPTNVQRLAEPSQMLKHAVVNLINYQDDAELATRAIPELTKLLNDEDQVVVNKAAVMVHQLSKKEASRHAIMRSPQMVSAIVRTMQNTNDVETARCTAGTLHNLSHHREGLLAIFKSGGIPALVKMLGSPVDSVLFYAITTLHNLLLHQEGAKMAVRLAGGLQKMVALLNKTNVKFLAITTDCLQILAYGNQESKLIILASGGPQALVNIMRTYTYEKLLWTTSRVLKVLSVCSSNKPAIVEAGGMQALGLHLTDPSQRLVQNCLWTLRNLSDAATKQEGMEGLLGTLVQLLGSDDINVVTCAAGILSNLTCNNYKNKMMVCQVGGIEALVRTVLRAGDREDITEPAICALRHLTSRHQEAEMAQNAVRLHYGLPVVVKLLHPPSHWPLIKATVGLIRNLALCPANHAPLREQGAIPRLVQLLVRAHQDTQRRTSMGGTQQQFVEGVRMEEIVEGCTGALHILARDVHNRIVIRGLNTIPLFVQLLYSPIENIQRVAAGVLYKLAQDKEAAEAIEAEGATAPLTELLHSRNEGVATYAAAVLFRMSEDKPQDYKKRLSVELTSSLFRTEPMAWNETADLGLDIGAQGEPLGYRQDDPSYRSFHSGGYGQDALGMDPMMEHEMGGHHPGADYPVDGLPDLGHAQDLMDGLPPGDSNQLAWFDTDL

[3] = biological target: T3, full-length β-catenin E462K, untagged (human, UniProt P35222 1-781, E462K)
T3 sequence (looked up): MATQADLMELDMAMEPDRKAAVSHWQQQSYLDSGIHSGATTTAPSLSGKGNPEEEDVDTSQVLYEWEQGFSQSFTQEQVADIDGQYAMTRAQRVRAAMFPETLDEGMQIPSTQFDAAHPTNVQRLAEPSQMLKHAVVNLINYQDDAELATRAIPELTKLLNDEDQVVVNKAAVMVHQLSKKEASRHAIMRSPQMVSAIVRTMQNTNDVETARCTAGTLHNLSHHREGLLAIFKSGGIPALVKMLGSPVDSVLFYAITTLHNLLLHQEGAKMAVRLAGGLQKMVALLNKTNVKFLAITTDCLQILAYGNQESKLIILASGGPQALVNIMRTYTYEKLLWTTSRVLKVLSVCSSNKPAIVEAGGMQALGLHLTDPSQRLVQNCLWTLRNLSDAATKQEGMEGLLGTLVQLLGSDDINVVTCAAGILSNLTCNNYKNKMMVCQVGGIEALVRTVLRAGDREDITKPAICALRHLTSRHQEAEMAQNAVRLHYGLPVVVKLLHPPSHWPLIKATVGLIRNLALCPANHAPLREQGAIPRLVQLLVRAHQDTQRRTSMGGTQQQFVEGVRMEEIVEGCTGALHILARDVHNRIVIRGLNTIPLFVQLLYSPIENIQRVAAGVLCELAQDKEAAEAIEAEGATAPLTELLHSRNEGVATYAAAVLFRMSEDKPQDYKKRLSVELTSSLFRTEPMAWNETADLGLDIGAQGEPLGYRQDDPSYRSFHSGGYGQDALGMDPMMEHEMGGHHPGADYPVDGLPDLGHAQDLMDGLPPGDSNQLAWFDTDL

binding result [1]: binds
binding result [2]: binds
binding result [3]: binds
B1: GST-tagged TCF4 fragment (a.a. 1–53) (domain or fragment, UniProt Q9NQB0 1-53, looked up)
chain: MPQLNGGGGDDLGANDELISFKDEGEQEEKSSENSSAERDLADVKSSLVNESE

Reference: PMC12633535 (bioRxiv, 2025)
